Positions count from the first letter of the chain named.
B1: 16A2.1x2 (VHH)
chain: SEVQLVESGGGLVQPGGSLRLSCAISGFALAETDIDWVRQAPGKGLEWVARIFSSGGNTDYADSVKGRFTISADTSKNTVYLQMNSLRAEDTAVYYCGRSDSIAYNVILPNSTYTARDYRGQGTLVTVSSGGGGSGGGGSGGGGSGGGGSGGGGSGGGGSGGGGSEVQLVESGGGLVQPGGSLRLSCAISGFALAETDIDWVRQAPGKGLEWVARIFSSGGNTDYADSVKGRFTISADTSKNTVYLQMNSLRAEDTAVYYCGRSDSIAYNVILPNSTYTARDYRGQGTLVTVSSHHHHHH
notes: Tandem of two 16A2.1 VH domains in one chain; 'produced in the same way' as the single clones (E. coli, ATG codon 5', 3' hexahistidine tag); also called bivalent molecule 16A2.1x2; bivalent 16A2.1x2 molecule
B2: 16A2.1 (VHH)
VHH: EVQLVESGGGLVQPGGSLRLSCAISGFALAETDIDWVRQAPGKGLEWVARIFSSGGNTDYADSVKGRFTISADTSKNTVYLQMNSLRAEDTAVYYCGRSDSIAYNVILPNSTYTARDYRGQGTLVTVSS
notes: E. coli, ATG codon 5' (possible initiator Met), 3' hexahistidine tag; also called anti-VEGF DotBody 16A2.1; clone 16A2.1
B3: 20A2.1 (VHH)
VHH: B2 VHH with A28P, E31D, G55Y, N57S, V106I, N110A, T114S, A115S
notes: Autonomous humanised VH domain (DotBody), from the 16A2.1-based library with heat challenge; E. coli, ATG codon 5' (possible initiator Met), 3' hexahistidine tag; also called DotBody 20A2.1
B4: 20A3.1 (VHH)
VHH: EVQLVESGGGLVQPGGSLRLSCAISGFSLADTDIDWVRQAPGKGLEWVARIFSSSGSTYYADSVKGRFTISADTSKNTVYLQMNSLRAEDTAVYYCDRADSVGYNVIFPGSTYSRSGYRGQGTLVTVSS
notes: Autonomous humanised VH domain (DotBody), from the 16A2.1-based library with heat challenge; E. coli, ATG codon 5' (possible initiator Met), 3' hexahistidine tag; also called DotBody 20A3.1
B5: 21A1.1 (VHH)
VHH: EVQLVESGGGLVQPGGSLRLSCAISGFALATTDIDWVRQAPGKGLEWVARIFNPSDFTDYADSVKGRFTISADTSKNTVYLQMNSLRAEDTAVYYCGRPAVYGYNIFLDSPTYDASQYRGQGTLVTVSS
notes: Autonomous humanised VH domain (DotBody), from the 16C2.1-based library with heat challenge; E. coli, ATG codon 5' (possible initiator Met), 3' hexahistidine tag; also called DotBody 21A1.1
B6: 21A8.1 (VHH)
VHH: EVQLVESGGGLVQPGGSLRLSCAISGFSVDATDIDWVRQAPGKGLEWVARIFSPSGFTDYADSVKGRFTISADTSKNTVYLQMNSLRAEDTAVYYCDRPEFYAYNIFHDPRTVPAGNYRGQGTLVTVSS
notes: Autonomous humanised VH domain (DotBody), from the 16C2.1-based library with heat challenge; E. coli, ATG codon 5' (possible initiator Met), 3' hexahistidine tag; also called DotBody 21A8.1
B7: 21D9.1 (VHH)
VHH: EVQLVESGGGLVQPGGSLRLSCAISGFSLGATDIDWVRQAPGKGLEWVARIFSPSDFTDYADSVKGRFTISADTSKNTVYLQMNSLRAEDTAVYYCSRPDTYAYNIFPHTASHGAFNYRGQGTLVTVSS
notes: Autonomous humanised VH domain (DotBody), from the 16C2.1-based library with heat challenge; E. coli, ATG codon 5' (possible initiator Met), 3' hexahistidine tag; also called DotBody 21D9.1
B8: 21E6.1 (VHH)
VHH: EVQLVESGGGLVQPGGSLRLSCAISGFTLAATDIDWVRQAPGKGLEWVARIFTPTGFSDYADSVKGRFTISADTSKNTVYLQMNSLRAEDTAVYYCGIPELYAYNIFMDIPAYNDVYYRGQGTLVTVSS
notes: Autonomous humanised VH domain (DotBody), from the 16C2.1-based library with heat challenge; E. coli, ATG codon 5' (possible initiator Met), 3' hexahistidine tag; also called DotBody 21E6.1
B9: 23D5.1 (VHH)
VHH: EVQLVESGGGLVQPGGSLRLSCAISGFDLATTDIDWVRQAPGKGLEWVARIFRPSDFTDYADSVKGRFTISADTSKNTVYLQMNSLRAEDTAVYYCVRPDSYAYNILFVTRTFNALHYRGQGTLVTVSS
notes: Autonomous humanised VH domain (DotBody), from the 16C2.1-based library without heat challenge; E. coli, ATG codon 5' (possible initiator Met), 3' hexahistidine tag; also called DotBody 23D5.1
B10: 13A6 (VHH)
VHH: EVQLVESGGGLVQPGGSLRLSCAISGFSLAATDIDWVRQAPGKGLEWVARIFPSAGSTDYADSVKGRFTISADTSKNTVYLQMNSLRAEDTAVYYCGRSDSYSYNVFLHNPTYTALDYRGQGTLVTVSS
notes: Autonomous humanised VH domain (DotBody); also called anti-VEGF DotBody 13A6; clone 13A6
B11: 16A6.1 (VHH)
VHH: B10 VHH with S54F, A55S, A61T, N110D, T112A
notes: E. coli, ATG codon 5' (possible initiator Met), 3' hexahistidine tag; also called clone 16A6.1

biological target: T1, Biotinylated human VEGF-165 (Acro Biosystem) (human, UniProt P15692 207-395, biotinylated (site not stated)); test: BLI, biotinylated antigen on streptavidin tips, 600 sec dissociation, 1:1 global fit
T1 construct: Bought protein; also called human VEGFA
Protocol: (§1) Binding characterization was performed using BLI (Satorius) at RT with a 1000 rpm flow-rate. Biotinylated human VEGF-165 (Acro Biosystem) was immobilized onto Streptavidin-coated tips at a concentration of 3 μg/mL for 60 sec in BLI buffer (0.1% BSA and 0.01% Tween-20 in PBS). After a 30 sec baseline, anti-VEGFA DotBodies were associated at 8 different concentrations, including a blank reference, in BLI buffer for 60 sec, followed by a 400 sec dissociation in BLI buffer. The background buffer signal was subtracted using the 0 nM concentration reference, and the kinetics of binding were calculated using a global fit following a 1:1 binding model, using BLI Analysis Software. The bivalent molecule 16A2.1x2 was also characterized as described here, but with a 600 sec dissociation. To characterize the binding of all the clones against murine VEGFA, the same procedure was employed, but the immobilized target was replaced with biotinylated murine VEGF-164 (Acro Biosystem).

Q: B1 was tested. Which Kd did it give?
A: 0.301 nM

Q: What about the koff of the same binder?
A: 0.000128 s⁻¹

Q: And the kon?
A: 426000 M⁻¹ s⁻¹

biological target: T2, Human VEGF-121 (Acro Biosystems) (human, UniProt P15692 207-395); test: competitive ELISA, inhibition of VEGF-121 (0.5 nM) binding to coated VEGFR1 (FIG. 5)
T2 construct: Bought protein; also called human VEGFA
T2 sequence: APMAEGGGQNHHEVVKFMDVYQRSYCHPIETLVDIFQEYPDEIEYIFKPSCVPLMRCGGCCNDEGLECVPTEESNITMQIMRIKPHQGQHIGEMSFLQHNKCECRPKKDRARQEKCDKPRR
Protocol: (§2) To perform the competitive ELISA, the VEGFR1 was immobilized at a concentration of 2 μg/mL onto a Maxisorp 96-well plate (Thermo Scientific) overnight at 4° C., washed three times with PBS and blocked for 1 h at RT with ELISA Block Buffer (EBB: 0.2% BSA in PBST). […] The samples were incubated for 2 h at RT, and 50 μL transferred onto the VEGFR1-coated plate. After 2 h incubation, the plate was washed 3 times with PBST. 50 μL of streptavidin-HRP conjugate (Thermo Scientific) was added at a 1:5,000 dilution in EBB, and incubated for 1 h at RT. The plate was washed 5 times with PBST, and developed with 50 μL 3,3′,5,5′-Tetramethylbenzidine (TMB) substrate (GeneTex). After 5-15 min, the reactions were stopped by adding 50 μL of 2M H₂SO₄, and signal was measured at an absorbance of 450 nm.

Q: With B2 as the binder, how does the IC50 read?
A: 3 nM

Q: B3 was tested. Which IC50 did it give?
A: 1.6 nM

Q: With B4 as the binder, how does the IC50 read?
A: 0.9 nM

Q: Which IC50 does the source give for B5 here?
A: 0.9 nM

Q: For B6, which IC50 is on record?
A: 1.8 nM

Q: Which IC50 does the source give for B7 here?
A: 1 nM

Q: With B8 as the binder, how does the IC50 read?
A: 7.5 nM

Q: How did the IC50 turn out when B9 was run?
A: 1.4 nM

biological target: T2, Human VEGF-121 (Acro Biosystems); test: competitive ELISA, inhibition of VEGF-121 (0.5 nM) binding to coated VEGFR1 (FIG. 4)
Protocol: as §2

Q: For B10, which IC50 is on record?
A: 5900 nM

Q: How did the IC50 turn out when B2 was run?
A: 12.2 nM

Q: B11 was tested. Which IC50 did it give?
A: 41.4 nM

biological target: T1, Biotinylated human VEGF-165 (Acro …); test: not stated at this place (BLI in Example 10)
Protocol: as §1

Q: For B2, which Kd is on record?
A: < 5 nM

biological target: T1, Biotinylated human VEGF-165 (Acro …); test: BLI, biotinylated antigen on streptavidin tips, 1:1 global fit
Protocol: as §1

Q: What does the source list for B10?
A: Kd: 38.9 nM; koff: 0.00475 s⁻¹; kon: 122000 M⁻¹ s⁻¹

Q: Which Kd does the source give for B2 here?
A: 2.5 nM

Q: And the koff?
A: 0.000986 s⁻¹

Q: And the kon?
A: 394000 M⁻¹ s⁻¹

Q: With B11 as the binder, how does the Kd read?
A: 14.7 nM

Q: What about the koff of the same binder?
A: 0.00136 s⁻¹

Q: What about the kon of the same binder?
A: 92400 M⁻¹ s⁻¹

Q: Which results are given for B3?
A: Kd: 5.54 nM; koff: 0.00055 s⁻¹; kon: 97700 M⁻¹ s⁻¹

Q: What does the source list for B4?
A: Kd: 2.78 nM; koff: 0.000725 s⁻¹; kon: 260000 M⁻¹ s⁻¹

Q: With B5 as the binder, how does the Kd read?
A: 11.3 nM

Q: And the koff?
A: 0.00103 s⁻¹

Q: What about the kon of the same binder?
A: 91500 M⁻¹ s⁻¹

Q: How did the Kd turn out when B6 was run?
A: 20 nM

Q: What about the koff of the same binder?
A: 0.00118 s⁻¹

Q: And the kon?
A: 58000 M⁻¹ s⁻¹

Q: For B7, which Kd is on record?
A: 20.5 nM

Q: And the koff?
A: 0.00099 s⁻¹

Q: What about the kon of the same binder?
A: 48200 M⁻¹ s⁻¹

Q: How did the Kd turn out when B8 was run?
A: 6.3 nM

Q: What about the koff of the same binder?
A: 0.000442 s⁻¹

Q: And the kon?
A: 69600 M⁻¹ s⁻¹

Q: For B9, which Kd is on record?
A: 2.8 nM

Q: What about the koff of the same binder?
A: 0.000802 s⁻¹

Q: And the kon?
A: 286000 M⁻¹ s⁻¹

biological target: T3, Biotinylated murine VEGF-164 (Acro Biosystem) (mouse, UniProt Q00731-2 27-190, biotinylated (site not stated)); test: as above
T3 construct: Bought protein; also called Mouse VEGF164; mouse VEGFA
T3 sequence (looked up): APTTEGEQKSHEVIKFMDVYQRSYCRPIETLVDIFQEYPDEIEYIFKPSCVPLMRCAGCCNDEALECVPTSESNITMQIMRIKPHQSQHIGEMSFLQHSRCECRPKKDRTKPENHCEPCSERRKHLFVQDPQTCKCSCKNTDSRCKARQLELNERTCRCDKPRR
Protocol: as §1

Q: Which Kd does the source give for B10 here?
A: 248 nM

Q: What about the koff of the same binder?
A: 0.0104 s⁻¹

Q: What about the kon of the same binder?
A: 41900 M⁻¹ s⁻¹

Q: For B2, which Kd is on record?
A: 16.6 nM

Q: And the koff?
A: 0.00193 s⁻¹

Q: What about the kon of the same binder?
A: 116000 M⁻¹ s⁻¹

Q: What does the source list for B11?
A: Kd: 18.4 nM; koff: 0.00225 s⁻¹; kon: 122000 M⁻¹ s⁻¹

Q: Which Kd does the source give for B3 here?
A: 10.2 nM

Q: And the koff?
A: 0.00135 s⁻¹

Q: What about the kon of the same binder?
A: 132000 M⁻¹ s⁻¹

Q: Which Kd does the source give for B4 here?
A: 8.7 nM

Q: And the koff?
A: 0.000889 s⁻¹

Q: What about the kon of the same binder?
A: 102000 M⁻¹ s⁻¹

Q: With B5 as the binder, how does the Kd read?
A: 13.8 nM

Q: What about the koff of the same binder?
A: 0.00231 s⁻¹

Q: And the kon?
A: 167000 M⁻¹ s⁻¹

Q: Which Kd does the source give for B6 here?
A: 46.1 nM

Q: And the koff?
A: 0.00292 s⁻¹

Q: What about the kon of the same binder?
A: 63400 M⁻¹ s⁻¹

Q: B7 was tested. Which Kd did it give?
A: 41.7 nM

Q: What about the koff of the same binder?
A: 0.00243 s⁻¹

Q: And the kon?
A: 58000 M⁻¹ s⁻¹

Q: How did the Kd turn out when B8 was run?
A: 14.2 nM

Q: And the koff?
A: 0.00117 s⁻¹

Q: And the kon?
A: 82800 M⁻¹ s⁻¹

Q: B9 was tested. Which Kd did it give?
A: 8.34 nM

Q: What about the koff of the same binder?
A: 0.00169 s⁻¹

Q: What about the kon of the same binder?
A: 205000 M⁻¹ s⁻¹

From patent US20240132580A1 (DOTBIO PTE, published 2024)
